Results: publication PMC7603314, “Broad-complex transcription factor mediates opposing hormonal regulation of two phylogenetically distant arginine kinase genes in Tribolium castaneum” (Communications Biology, 2020)

Substrate: N=C(N)NCCC[C@H](N)C(=O)O
Assay: purified protein
Assay type: biochemical, Tribolium castaneum
Conditions: forward reaction, 0.9 mM ATP, 20 mM MgCl2, 50 mM Tris-HCl pH 7.5, 30 °C, L-arginine varied 0.2-10 mM

| Protein | Km [µM] | kcat [s⁻¹] | kcat/Km [M⁻¹ s⁻¹] |
| --- | --- | --- | --- |
| TcAK2 (Tribolium castaneum) (protein, His-tagged in pQE-30-XA, E. coli M15, Ni-NTA; signature CP(S/T)N(I/L)GT at 286-292) MAKAKCHNCETKCGKGKINPEVLTKLEDGFRRLATSNSQSLLKKYLTQAVFDKLKSKKTGFGSTLLDCIQSGLENPDSNIGVYAPDPEAYTVFAELFDPIIDEYHGGFKKTDQHPASTWGDLKSIGDVDPDQKYVVSTRIRCGRSLAGYPFNPCLTEAQYKEMEKKVSGTLMSLTGELKGKYYPLTGMSKRDQQQLIDDHFLFKEGDRFLQAANACRFWPTGRGIFHNTKKTFLVWLNEEDHLRIISMQKGGNVGEVYQRLVCAVEEIETKLKFSRSDRFGYLTFCPTNLGTTIRASVHIQVPKLAKDKAKLEAVANQFNLQVRGTRGEHSEAEEGVYDISNRRRLGLTEYDAVKEMHDGILKIIEMESCM | 3700 ± 40 | 12.7 ± 0.95 | 3500 |
| TcAK1 (Tribolium castaneum) (protein, His-tagged in pQE-30-XA, E. coli M15, Ni-NTA; signature CP(S/T)N(I/L)GT at 270-276) MVDAAVLEKLEAGFKKLEASDSKSLLKKYLTRELFDKLKTKKTSFGSTLLDVIQSGLENHDSGIGIYAPDADSYSVFADLFDPIIEDYHGGFKKTDKHPPKDWGDVNAFGNLDPAGEFVVSTRVRCGRSLEGYPFNPCLTEEQYKEMEQKVSSTLSGLEGELKGTFYPLTGMSKEVQQKLIDDHFLFKEGDRFLQAANACRFWPTGRGIFHNDAKTFLVWCNEEDHLRIISMQMGGDLGQVYRRLVTGVNDIEKRLPFSHSDRFGFLTFCPTNLGTTVRASVHIKVPKLAANKAKLDEVAAKFNLQVRGTRGEHTEAEGGVYDISNKRRMGLTEFDAVKEMYDGISEIIKMEKEL | 1500 ± 20 | 172.7 ± 5.8 | 113000 |
